Data: patent US20210188980A1 (SHANGHAI EPIMAB BIOTHERAPEUTICS, published 2021)

Key:
[1] = biological target: T1, recombinant human LAG-3-his protein (Novoprotein) (human, UniProt P18627 23-450); test: BLI Octet, FIT-Ig captured, antigen analyte
T1 construct: Bought; also called huLAG-3; not shown: His tag
T1 sequence (looked up): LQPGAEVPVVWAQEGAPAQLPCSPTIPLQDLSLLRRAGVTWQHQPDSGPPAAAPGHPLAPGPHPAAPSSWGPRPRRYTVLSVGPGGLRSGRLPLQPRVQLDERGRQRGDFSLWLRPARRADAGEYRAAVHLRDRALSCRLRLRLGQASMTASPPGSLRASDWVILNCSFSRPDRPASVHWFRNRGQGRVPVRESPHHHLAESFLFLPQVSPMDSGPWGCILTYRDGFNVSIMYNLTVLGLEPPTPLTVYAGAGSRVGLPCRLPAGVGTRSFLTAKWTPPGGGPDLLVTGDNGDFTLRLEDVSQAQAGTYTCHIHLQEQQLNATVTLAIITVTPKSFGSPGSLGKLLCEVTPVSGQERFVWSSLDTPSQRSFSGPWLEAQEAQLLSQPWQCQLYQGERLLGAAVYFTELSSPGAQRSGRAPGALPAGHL

Cyno LAG-3-His = Cyno LAG-3-His (cynomolgus); test: BLI Octet, FIT-Ig captured, antigen analyte
human PD-1-His protein [2] = biological target: T2, human PD-1-His protein (human, UniProt Q15116 25-167, limits assumed); test: BLI Octet, FIT-Ig captured, antigen analyte
T2 construct: also called huPD-1; not shown: His tag

Cyno PD-1-His = Cyno PD-1-His (cynomolgus, UniProt B0LAJ3 25-170); test: BLI Octet, FIT-Ig captured, antigen analyte
[3] = biological target: T3, human LAG-3 expressed on cells (human, UniProt P18627 23-525); test: flow cytometry, biotinylated FIT-Ig + FITC-streptavidin, CD3 T cells; panel 'PBMC stimulation for 72h, PD1 antibody treated group'; PD-1 pre-blocked with unlabelled HumAb713-7, so the signal is laid to LAG-3
T3 construct: whole, on cells; also called HEK 293F cells expressing human LAG-3; T hybridoma-huLAG-3 cells
T3 sequence (looked up): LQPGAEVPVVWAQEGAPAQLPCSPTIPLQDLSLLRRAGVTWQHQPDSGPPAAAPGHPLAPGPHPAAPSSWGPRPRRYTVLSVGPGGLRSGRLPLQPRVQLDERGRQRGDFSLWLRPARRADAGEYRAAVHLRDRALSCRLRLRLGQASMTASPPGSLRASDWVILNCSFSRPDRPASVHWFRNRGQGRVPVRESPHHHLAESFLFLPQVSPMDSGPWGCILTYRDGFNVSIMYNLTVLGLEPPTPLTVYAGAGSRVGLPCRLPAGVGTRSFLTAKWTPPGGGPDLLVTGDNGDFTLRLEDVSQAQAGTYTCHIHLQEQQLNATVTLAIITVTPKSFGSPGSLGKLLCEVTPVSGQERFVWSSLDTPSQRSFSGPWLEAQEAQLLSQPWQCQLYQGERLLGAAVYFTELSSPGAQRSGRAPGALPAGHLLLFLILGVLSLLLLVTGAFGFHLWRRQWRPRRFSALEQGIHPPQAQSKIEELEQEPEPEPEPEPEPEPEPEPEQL
Method: (§1) To further evaluate the cell surface binding ability of FIT107-1-7b-1, the parental antibodies HumAb713-7, HumAb747V-67, and the bispecific FIT-Ig FIT107-1-7b-1 were biotinylated with biotin reagent (Sigma, Cat. No. S3259). For PBMC without stimulation, PBMCs were re-suspended at 5×10⁶ cells/mi. For PD-1 antibody (HumAb713-7) or LAG-3 antibody (HumAb747V-67) testing, 100 μg/ml of antibody were added and the reaction mixture allowed to incubate at 37° C. for 40 minutes separately, followed by two washes with FACS buffer. Then 100 μl, 5×10⁵ PBMC/well (untreated group, anti-PD-1 antibody treated group and anti-LAG-3 antibody treated group) were seeded into wells of 96-well plate. Biotinylated HumAb713-7, HumAb747V-67 and FIT107-1-7b-1 were added and incubated at 37° C. for 40 minutes (final working concentration starting from 100 nM with 3-fold serial dilution) followed by washing with FACS buffer twice. FITC-streptavidin and BV421-anti human-CD3 antibody were added and the assay plate incubated at 4° C. for 30 minutes, followed by washing with FACS buffer twice. The plate was analyzed with a Beckman Coulter CytoFlex flow cytometer, PBMC stimulation groups were stimulated with anti-CD3 plus anti-CD28 antibody for 72 hours, to induce PD-1 and LAG-3 expression on T cells. […]

human PD-1-His protein [4] = biological target: T2, human PD-1-His protein; test: SPR Biacore
[5] = biological target: T4, human PD-1 expressed on cells (human, UniProt Q15116 25-288); test: cell RBA FACS; competitor PD-L1/Fc
T4 construct: whole, on cells; also called CHO-K1/huPD-1; CHO-K1-hPD-1 cells

[6] = biological target: T4, human PD-1 expressed on cells; test: cell RBA FACS; competitor PD-L2/Fc
[7] = biological target: T4, human PD-1 expressed on cells; test: flow cytometry, biotinylated antibody + FITC-streptavidin, CD3 T cells; panel 'PBMC without stimulation, untreated group'
Method: as §1

[8] = biological target: T4, human PD-1 expressed on cells; test: flow cytometry, biotinylated antibody + FITC-streptavidin, CD3 T cells; panel 'PBMC stimulation for 72h, untreated group' (anti-CD3 plus anti-CD28)
Method: as §1

[9] = biological target: T4, human PD-1 expressed on cells; test: flow cytometry, biotinylated antibody + FITC-streptavidin, CD3 T cells; panel 'PBMC stimulation for 72h, Lag3 antibody treated group' (cells pre-treated with unlabelled HumAb747V-67)
Method: as §1

[10] = biological target: T4, human PD-1 expressed on cells; test: flow cytometry, biotinylated antibody + FITC-streptavidin, CD3 T cells; panel 'PBMC without stimulation, Lag3 antibody treated group' (cells pre-treated with unlabelled HumAb747V-67)
Method: as §1

[11] = biological target: T1, recombinant human LAG-3-his protein …; test: BLI Octet, Ab on AHC sensor, huLAG-3-his; test group 2
Method: All 9 humanized antibodies (Table 25) and a chimeric antibody having the parental murine VH and VL domains (mAb747c) were ranked by dissociation rate constant (koff). Briefly, antibodies were characterized for affinities and binding kinetics by Octet RED96 biolayer interferometry (Pall FortéBio LLC). Antibodies were captured by Anti-HIgG Fc Capture (AHC) Biosensors (Pall) at a concentration of 100 nM for 30 seconds. Sensors were then dipped into running buffer (1× pH7.2 PBS, 0.05% Tween 20, 0.1% BSA) for 60 seconds to check baseline. Binding was measured by dipping sensors into a single concentration of recombinant human LAG-3-his protein (Novoprotein). Dissociation was followed by dipping sensors into running buffer for 1200 seconds. The association and dissociation curves were fitted to a 1:1 Langmuir binding model using FortéBio Data Analysis software (Pall).
All 13 humanized antibodies (Table 39) and chimeric anti-LAG-3 antibody mAb747c having the parental murine VH and VL domains were ranked by dissociation rate constant (koff) in the same manner described in Example 9.1 supra. In each test group, the off-rates of antibodies were able to be compared with that of mAb747c. The off-rate ratios were calculated by the off-rate of antibody to that of mAb747c of its group and were compared all together. The lower the ratio was, the higher was the affinity of the antibody.

[12] = biological target: T3, human LAG-3 expressed on cells; test: flow cytometry, biotinylated antibody + FITC-streptavidin, CD3 T cells; panel 'PBMC stimulation for 72h, untreated group' (anti-CD3 plus anti-CD28)
Method: as §1

[13] = biological target: T3, human LAG-3 expressed on cells; test: flow cytometry, biotinylated antibody + FITC-streptavidin, CD3 T cells; panel 'PBMC stimulation for 72h, PD1 antibody treated group' (cells pre-treated with unlabelled HumAb713-7)
Method: as §1

[14] = biological target: T3, human LAG-3 expressed on cells; test: cell-based or functional assay
[15] = biological target: T4, human PD-1 expressed on cells; test: cell-based or functional assay

Chain of Cyno PD-1-His (B0LAJ3 entry or part of it limits assumed): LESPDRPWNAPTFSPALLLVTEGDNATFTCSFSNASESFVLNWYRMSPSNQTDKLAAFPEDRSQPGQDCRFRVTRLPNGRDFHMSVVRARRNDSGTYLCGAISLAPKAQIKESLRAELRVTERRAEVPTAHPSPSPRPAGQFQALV
T2 sequence (Q15116 25-167 limits assumed): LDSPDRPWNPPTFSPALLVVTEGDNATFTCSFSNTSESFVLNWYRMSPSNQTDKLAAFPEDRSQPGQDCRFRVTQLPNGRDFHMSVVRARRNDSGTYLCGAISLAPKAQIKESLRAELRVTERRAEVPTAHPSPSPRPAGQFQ
T4 sequence (Q15116 25-288): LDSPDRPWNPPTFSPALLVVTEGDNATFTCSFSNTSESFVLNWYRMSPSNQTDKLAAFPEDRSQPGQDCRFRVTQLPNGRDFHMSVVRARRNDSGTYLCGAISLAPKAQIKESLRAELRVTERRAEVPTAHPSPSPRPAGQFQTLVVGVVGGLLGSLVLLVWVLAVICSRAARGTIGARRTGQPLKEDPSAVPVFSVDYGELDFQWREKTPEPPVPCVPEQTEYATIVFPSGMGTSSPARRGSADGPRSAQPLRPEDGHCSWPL

B1: FIT107-1-7b-1 (bispecific antibody, human IgG1, kappa, L234A L235A)
chain 1: not shown
chain 2: EVQLVQSGAEVKKPGATVKLSCTASGFNIKDDYMHWVKQRPEQGLDWIGWIVPENANTVYASKFQGKATITADTSTNTAYLELSSLRSEDTAVYYCTVYGDYWGQGTTVTVSSASTKGPSVFPLAPSSKSTSGGTAALGCLVKDYFPEPVTVSWNSGALTSGVHTFPAVLQSSGLYSLSSVVTVPSSSLGTQTYICNVNHKPSNTKVDKKVEPKSC
chain 3: not shown
notes: FIT-Ig hexamer; outer Fab anti-LAG-3 (HumAb747V-67 with VH G55A), inner Fab anti-PD-1 (HumAb713-7); also called FIT107-7b-1
Kd [1]: 1.22 nM | koff [1]: 0.000243 s⁻¹ | kon [1]: 200000 M⁻¹ s⁻¹ | Kd (Cyno LAG-3-His): 0.123 nM | koff (Cyno LAG-3-His): 6.36e-05 s⁻¹ | kon (Cyno LAG-3-His): 519000 M⁻¹ s⁻¹ | Kd (human PD-1-His protein [2]): 10.4 nM | koff (human PD-1-His protein [2]): 0.000935 s⁻¹ | kon (human PD-1-His protein [2]): 89600 M⁻¹ s⁻¹ | Kd (Cyno PD-1-His): 3.61 nM | koff (Cyno PD-1-His): 0.000775 s⁻¹ | kon (Cyno PD-1-His): 215000 M⁻¹ s⁻¹ | EC50 (read off the curve) [3]: ~1 nM

B2: HumAb713-7 (antibody, human IgG1, kappa, L234A L235A, V domains shown)
VH: EVQLVESGGGLVQPGGSLRLSCAASGFTSSDYGMHWVRQAPGKGLEWVSYISSGSYTIYYADTVKGRFTISRDNAKNSLYLQMNSLRDEDTAVYYCAKRGGSSHVNVMDYWGQGTTVTVSS
VL: DIQMTQSPSSLSASVGDRVTITCKASDHINNWLAWYQQKPGKAPKLLIYGATSLETGVPSRFSGSGSGTDYTFTISSLQPEDIATYYCQQYWSPPYTFGGGTKVEIKR
notes: humanized mAb713
Kd (human PD-1-His protein [4]): 2.83 nM | koff (human PD-1-His protein [4]): 0.00035 s⁻¹ | kon (human PD-1-His protein [4]): 124000 M⁻¹ s⁻¹ | IC50 [5]: 0.76 nM | IC50 [6]: 1.4 nM | EC50 (read off the curve) [7]: ~3 nM | EC50 (read off the curve) [8]: ~2 nM | EC50 (read off the curve) [9]: ~3 nM | EC50 (read off the curve) [10]: ~3 nM

B3: HumAb747V-67 (antibody, human IgG1, V domains shown)
VH: EVQLVQSGAEVKKPGATVKLSCTASGFNIKDDYMHWVKQRPEQGLDWIGWIVPENGNTVYASKFQGKATITADTSTNTAYLELSSLRSEDTAVYYCTVYGDYWGQGTTVTVSS
VL: DIQMTQSPSSLSASVGDRVTITCRASQEISGYLSWLQQKPGGAIKRLIYAASALDSGVPSRFSGSRSGSDYTLTISSLQPEDFADYYCLQYASYPLTFGQGTKLELK
notes: engineered HumAb747-60 variant; human IgG1/kappa constant domains
koff [11]: 0.000319 s⁻¹ | off-rate ratio to that of mAb747c [11]: 47% | EC50 (read off the curve) [12]: ~1 nM | EC50 (read off the curve) [13]: 1 to 2 nM

B4: FIT107-1-2a (bispecific antibody, human IgG1, kappa, L234A L235A)
chain 1: not shown
chain 2: EVKLVESGGGLVKPGGSLKLSCAASGFTFSFYTMSWVRQTPEKRLEWVATISGGGRDTYYPDSVKGRFTISRDNAKNTLYLHMSSLRSEDTALYYCAGQGGNYLFAYWGQGTLVTVSAASTKGPSVFPLAPSSKSTSGGTAALGCLVKDYFPEPVTVSWNSGALTSGVHTFPAVLQSSGLYSLSSVVTVPSSSLGTQTYICNVNHKPSNTKVDKKVEPKSC
chain 3: DIQMTQSPSSLSASLGERVSLNCRASQEISGYLSWLQQKSDGTIKRLIYAASTLDSGVPKRFSGSRSGSDYSLTISSLESEDFADYYCLQYASYPLTFGAGTKLELKRTVAAPSVFIFPPSDEQLKSGTASVVCLLNNFYPREAKVQWKVDNALQSGNSQESVTEQDSKDSTYSLSSTLTLSKADYEKHKVYACEVTHQGLSSPVTKSFNRGEC
MLR, IFN-γ production, EC50 [14]: 0.508 nM | MLR, IFN-γ production, EC50 [15]: 0.508 nM
